PMC12004154, “Overexpression, Purification, and Biochemical Characterization of the vanC2 D-Ala-D-Ser Ligase from Enterococcus casseliflavus SSK and Its Inhibition by an Oxadiazole Derivative” (ACS Omega, 2025)
Like-named read-outs stand apart in the source and are kept apart here.

What was measured:
[1] = molecular target: T1, vanC2 D-Ala-D-Ser ligase (EcfDdls) (Enterococcus casseliflavus, UniProt Q47720); assay: malachite green inorganic phosphate detection assay with purified enzyme; assay type: biochemical
T1 construct: C-terminal 6x His-tagged EcfDdls, strain SSK, ~39 kDa
T1 sequence (Q47720 whole entry): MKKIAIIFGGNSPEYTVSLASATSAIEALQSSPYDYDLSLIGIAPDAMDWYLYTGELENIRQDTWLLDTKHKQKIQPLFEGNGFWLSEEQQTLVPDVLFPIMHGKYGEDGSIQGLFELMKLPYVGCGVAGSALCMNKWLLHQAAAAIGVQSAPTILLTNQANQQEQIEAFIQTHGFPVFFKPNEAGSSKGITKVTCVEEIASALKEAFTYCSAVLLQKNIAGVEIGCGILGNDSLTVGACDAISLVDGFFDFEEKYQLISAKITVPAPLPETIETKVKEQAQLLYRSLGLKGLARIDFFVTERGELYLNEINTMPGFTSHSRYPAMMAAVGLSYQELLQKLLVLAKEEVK

[2] = test system: Nc1ncnc2c1ncn2[C@@H]1O[C@H](COP(=O)(O)OP(=O)(O)OP(=O)(O)O)[C@@H](O)[C@H]1O; assay: Michaelis-Menten kinetics (Km), inorganic phosphate detection assay; assay type: biochemical, Enterococcus casseliflavus; details: MgCl2
[3] = test system: N[C@H](CO)C(=O)O; assay: Michaelis-Menten kinetics (Km2), inorganic phosphate detection assay; assay type: biochemical, Enterococcus casseliflavus; details: ATP, MgCl2 subsite […] (second substrate binding site)
[4] = test system: C[C@@H](N)C(=O)O; assay: Michaelis-Menten kinetics (Km1), inorganic phosphate detection assay; assay type: biochemical, Enterococcus casseliflavus; details: ATP, MgCl2 subsite […] (first substrate binding site)

For `Cc1cc(CN2CCN(Cc3nc(C(C)C)no3)CC2)no1` [CID 45805715, 1-[(5-methyl-1,2-oxazol-3-yl)methyl]-4-{[3-(propan-2-yl)-1,2,4-oxadiazol-5-yl]methyl}piperazine], which IC50 ([1]; read-out: IC50) is on record?
Its IC50 is 76.7 ± 1.01 µM.

With `N[C@@H]1CON=C1O` [DCS, D-cycloserine] as the molecule, how does the IC50 [1] read?
Its IC50 is 313 ± 1.6 µM.

For “vanC2 D-Ala-D-Ser ligase (EcfDdls) (Enterococcus casseliflavus)”, which Km [2] is on record?
The Km was 24.31 ± 4.1 µM.

What about the Km [3] of the same molecule?
The Km was 800 ± 100 µM.

And the Km [4]?
Its Km is 1120 ± 100 µM.
